Test: soluble fraction after stress (log2 fold change); higher = more stays soluble; pooled small domains, quantitative proteomics
Settings: stress: 75 degC
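Further: 20 min heating vs room temperature control held 20 min.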

First: HMPNGEAYQRFTYENDILEGRFEEWDSLGTDIVKGDYTAGVRHKKWLYYDSEGRRDKFVFLDMDSI
Second: HMPNNNDIVLDRVSFGYHEKEVLHGIDMTIREGTVNALVGPSGSGKSTIAKLIAGLWDVDGGSISF
The “soluble fraction (log2)” value of the first is lower: 0.116 for the first, 0.555 for the second.

“HMPNPSAGRVHIDALLPFDRVEVTDMQGSLLLDHSFSPRRAVDLDLNARGTLLYTLWSKGHLLGKGRVVR” and “HMPNQLLELVEMEIRDLLNEYEFPGDDTPIIQGSALKALEDPMGPWGDKIMDLMDAVDSYIPDPE” are within 0.2 log units of each other in “soluble fraction (log2)” value: -0.606 for the first, -0.686 for the second.

First: HMPPAIKTLMFMIQNKSLLKSPKQLAVVQQQLKKIKGVRDVLILLEEGKVMLKVNKHETIHEASIIRLLGG
Second: HMPPALTELLSVRTNASGTIDYLLPDRSAGLRVENGSKYSGMVPDSIYRLVAIYEIKDAKEPSAYIYTI
The “soluble fraction (log2)” value of the first is lower: -1.87 for the first, -0.0495 for the second.

Compared with “HMPPFDDILAEYYEPLYRHVRRMVVSHDDAKDVMQEAMLRIFQGLDGLKDPSAVRTWVWRIATNEALRH”, “HMPPPVDLDKKGYKLRGIVLEDGRSAAFVFVPAEKRVVVLRENASGPVRLLETGMRRIRLQTPEGAGYLEL” is lower in “soluble fraction (log2)” value: -0.0914 for the first, -1.36 for the second.

Going from “HMPPQPATQNTKAQVMQLAREKELMAGEGRGANVEALEKFANEHGISLRGMTEEQAEQLVKLLMEYTP” to “HMPPRFVPATGADLRRWLDVSGLTAEAAGDLLGVSGARFRQWLSRYRSAPLPDPVRALLVALLRP”, the “soluble fraction (log2)” value rises from -0.239 to -0.00746.

“HMPPSRFNELSMWFQEQLTEAGLKVDSGALKMLIEWLGQDQARLPSIIEVLVSTYGTKKKLTVDEIEPFL” and “HMPPTSADGIEKYLASGMIRGVGPVYAKKLVSAFGDKVFDIIEAAPHQLQEVEGIGRVRAASILAAWAEQ” are within 0.2 log units of each other in “soluble fraction (log2)” value: -0.384 for the first, -0.549 for the second.

Compared with “HMPQLEDLEPLDSSGMVRRDGPHLVLAVGRHRGRHLEEVRDSDPSYLHWLLSPKGIEDIQAKEDIKTYLNL”, “HMPQLVGDVDGDGRVSVTDGEWIRASYGALPWYAGWRAAADLDGSRKIDVVDLELLRTKMGN” is lower in “soluble fraction (log2)” value: -0.0235 for the first, -0.334 for the second.

Compared with “HMPRIYSITINPEKIRTVIGPGGKVIKDITAKTGTKIEIDDSGKVDIFSPDEEHARMAVEIINTLTEE”, “HMPRKYFPFYFTFRETAQTMPPRLRAVFYEAIIEYGTTGKEPTLPKSIAGYWPLVKPTLDSAKAHYDAG” is lower in “soluble fraction (log2)” value: 0.0671 for the first, -3.62 for the second.

First: HMPRNEIQRSVLNELVQWIKNNLAKKLTMQALSRFSGYSEWHLFRLFRHYFNMSPMAYIRQQRMQ
Second: HMPRPRIHSVVRGDTLYGISRQYGVAMSKLASLNGLKSPYRIMVGRSLRLPSAIEAERDRTAREVVQ
The “soluble fraction (log2)” value of the first is higher: -0.366 for the first, -1.53 for the second.

Going from “HMPRVLSSYTLTLRHQPTAEAVALVRTLLSPAGSVEVKEDGRTLVVRDELAALSRIVGALRSFDH” to “HMPRVSIEKIKKVVELLKHNPDYTYSKIGNIVGIGRKTVSGINNGKLYTDLVEELGINEFPI”, the “soluble fraction (log2)” value rises from -0.851 to -0.459.

“HMPRYQQIARQLKTAIEHGELKPGARLPSSRTWSQELGISRSTVESAYTELVAQGWLERRGQAGTFVSAQL” and “HMPRYSGMFAAWLHKALARMGKSMSDSARSAFTERVELDYSSANNELQKLSLLVGDRKVITEADVMRAIG” are within 0.2 log units of each other in “soluble fraction (log2)” value: -1.04 for the first, -0.86 for the second.

“HMPSALGDKIRAARKALKLSLEDLAEKVSSSKSYMWELENRDEPNPGADLLMRIAAALNVTTEHLLGP” and “HMPSDLQATLRAVQGMLQGVEGVDARLAGQRILLEGDSADARARERAAAIAGIFPGVVIDFVG” are within 0.2 log units of each other in “soluble fraction (log2)” value: -0.28 for the first, -0.263 for the second.

Compared with “HMPSEAVQNIIGNVKSKRRVATIGQARGLASNVIKEGKFDNVSNTAMVNRLIDLGIISNSIGYQ”, “HMPSEQGANKARDIIFRHHMKVDVWVGSWENARNYAEQAIKQGVKVIISRGGTAALLRHSLDTAIIKVR” is higher in “soluble fraction (log2)” value: -0.0616 for the first, 0.14 for the second.

“HMPSGLFEPIKKSELSIESIDLLKDQIRAFKQADIRITFGFLLDLITKGENPAYVNASKLFEQAWER” and “HMPSPSTLAKVDPFLLVTNADSLLMARPDDSELRAAIITAHINLAKTNNSVDHYKEVLKIEPQNALANYN” are within 0.2 log units of each other in “soluble fraction (log2)” value: 0.141 for the first, 0.17 for the second.

First: HMPSPTPEQVLKAFTDAAMQKNTVEELKQAFAKAWKMLEGTPEQHKAQDVYNIRRDELEGAA
Second: HMPSSIEGIEKYLGSGMIRGIGAVYAKRLVKQFGKDVFDIIEETPERLREVEGIGPIRAARIISGWADQ
The “soluble fraction (log2)” value of the first is higher: 0.376 for the first, -0.363 for the second.

Going from “HMPTITSPMVGTFYRAPSPGAAPFIEVGDTVKKGQVIGIIEAMKLLNEVEADKDGVVQAFAAENGEL” to “HMPTLNIVDGHIAASDGVRILSIHNVTGRRYATSSKLPAGIYIVVLMPAKAETPLTVKVIVEA”, the “soluble fraction (log2)” value falls from -0.335 to -1.42.

Going from “HMPTMTDIPIKIIRSRRRTLAIEVREGGEVIVRAPLYSRKAEIDAFVKAHENWIITKYNLMITKQN” to “HMPTPRVPMSKQRQILQLLQDGHLSTREIAAALHISKTSVGDIAKAARLAGLDWEAASKLSDEELSARIYK”, the “soluble fraction (log2)” value rises from -3.51 to -0.36.

“HMPTSPKANFLKELPQEFTRKQAVTIGDKLNIKERTVDNYLAKLEQAGYLVKPKAGYYQKIKS” and “HMPTTTFENLPDAKKKTIIAALLKEFSQSPLSKAQVAPIVKESQIARGAFYKYFVDLTDAYTYLYRQ” are within 0.2 log units of each other in “soluble fraction (log2)” value: -0.0924 for the first, -0.0519 for the second.

Compared with “HMPTVLKQGSTGQEVKELQQALSKLGYRVTVTGEFDTATHYGVVRFQRKHRLTIDGIVGPQTLSKIRAHQK”, “HMPVAPTYALTVKTDPPSANVRLLNSPTPYQPGVRLPSGNYDIEVTQSGYATRKESVRIADRDVALNIAL” is higher in “soluble fraction (log2)” value: -2.56 for the first, 0.265 for the second.

First: HMPVASNRDVNLDIGERVFVQEWAPNRTARVQYRGSPWEARLAPGAPAAAGEHRVSAVEGNWLVLEPA
Second: HMPVEFVKISIKPGHPWENQFVRDIVSLPDLLMVLILRGEERIIPNGNTKILVGDKIVLSALSPG
The “soluble fraction (log2)” value of the first is higher: -0.139 for the first, -2.2 for the second.

Compared with “HMPVEHVWHIAENGQTSGPYSKARMGRMAQEGQLTRDTHVWTPGQDGWMRAGDVTELAQLFT”, “HMPVFSLTPRELEILEWMSTPNTYRQIAAQLSVSEETVRSHAKNILEKMRQPNRAQAVLAAVKMGLIKL” is lower in “soluble fraction (log2)” value: 0.0383 for the first, -1.57 for the second.

First: HMPVISGQDLRVLIRDTGRERDQGISFLDDGTMVVVEDARRLIGQEVTATVTRVHQTQTGRIVFAHLSN
Second: HMPVPSPAEQTATQLANIERHTGITVDGWTRAIAEAGAAKHGEIVAWLKQQGLTHGNANALAHAVRARQSG
The “soluble fraction (log2)” value of the first is lower: -1.25 for the first, 0.581 for the second.

Going from “HMPVQSNRDALLDIGQTLQVQAWDAQGSARVSYRGSDWTAEFRGPGAAAPGLHRIIAVQGNRLIVEPA” to “HMPVRIYEISKKLGLENKEVLATAKSLGIAAAKVPSSSLDKITAEYLEEEILKSHPEVAARLK”, the “soluble fraction (log2)” value falls from 0.342 to 0.142.

Going from “HMPVYEEEVPAALDGQRLDRVVAMVTGLSRSEVGALLAAGAVTVDGTTPAKGSVRLAAGSIVSVTVS” to “HMQAATGVVTASVLNIRQGPGTNYTKVGSLLKGAQVEIVGQNGAWSKIRLKSGITGWVNSSYLKTST”, the “soluble fraction (log2)” value falls from -0.357 to -1.84.

First: HMQAGPEDIIRAKLKTAMPEAQIISIRPTPAGLYQVNAKGYESVFVTADGRYLFQGDLLEIQGDRIVNL
Second: HMQAKNGTVTGSVVNVRGGAGTQYAVKGKASRGTKVTILGQQSSWLNVRLDNGVTGWIHADYVQISE
The “soluble fraction (log2)” value of the first is lower: -0.186 for the first, 0.592 for the second.

Compared with “HMQAPHLALSPREFQVLQGLLAGDALDIIAERLHLSAKTVSNHQTLIRQKLGVGNAVELLRYAQLHRL”, “HMQAPIFMNETDGKWYFREKYLNDNHEIAYRVHPEGYDQMEDALRNSVNALNEFAAEMKELRKQV” is higher in “soluble fraction (log2)” value: -2.49 for the first, -0.0803 for the second.

Compared with “HMQAPVVNHDLIKSFERQWREIKATAKGKVRSVNLSDARSILQSFLNTLQKGPGTDSLISSVQNELSLIA”, “HMQARDQNVDEGKALLEKEFSRLALENLDRDKLANAVNYPTRDDMYAAIGAGDLRVGQVLHQAQQLF” is higher in “soluble fraction (log2)” value: -0.17 for the first, 0.226 for the second.

With “HMQASTGNVNTETLNLRKEASTSADILKLLSQGDEVEIVSESNGWYKVKYKDTEGFVSKEYITVN” the “soluble fraction (log2)” value was 1.02.

Reference: the domain aggregation screens of Martell et al. (2025)
